Measured values reported in US20160289304A1 (VIRO DYNAMICS, published 2016).

B1: 39-3F2-2A6 (mAb-2A6) (antibody, V domains shown)
VH: DVKLVESGGGLVKPGGSLKLSCAASGFTFSSYTMSWVRQTPEKRLEWVATISSGGIYTYYPDSVKGRFTISRDNAKNTLYLQMNSLKSEDTAMYYCVRSTSYYFDYWGQGTTLTVSS
VL: DIVMTQSPSSLTVTAGEKVTMSCKSSQSLLSDGSQKNYLTWCQQKPGQPPKLLIYWASTRESGVPDRFTGSGSGTDFTLTISSVQAEDLGVYYCQNDHSYPLTFGAGTKLELK
notes: also called HANA 39-3F2-2A6; sample 22b
B2: 56-2G9-1B3 (mAb-1B3) (antibody, V domains shown)
VH: EVQLVESGGGLVKPGGSLKLSCAASGFIFSSYVMSWVRQTPEKRLEWVATISSGGTNTYYPDSVKGRFTISRDNAKNTLYLQMSSLRSEDTAIYYCVRSYRYYFDYWGQGTTLTVSS
VL: DIVMTQSPSSLTVTAGEKVTMSCKSSQSLLNSGSQKNYLTWFQQKPGQSPKLLIYWASSRESGVPDRFTGSGSGTDFTLTISSVQAEDLAVYYCQNDSNYPLTFGAGTKLELK
B3: 39-4D12-2D11 (mAb-2D11) (antibody, V domains shown)
VH: DVKLVESGGGLVKPGGSPKLSCAASGFTFSSYTMSWVRQTPEKRLEWVATISSGGSYTYYPDSLKGRFTISRDNAKNTLYLQMSSLKSEDTAIYHCVRSTSYYFDYWGQGTTLTVSS
VL: DIVMTQSPSSLTVTAGEKVTMNCKSSQSLLSDGSQKNYLTWCQQKPGQPPKLLIYWASTRESGVPDRFTGSGSGTDFTLTIDSVQAEDLGIYYCQNDHSYPLTFGAGTKLELK
notes: also called HANA 39-4D12-2D11; sample 28b

Legend:
[1] = target: T1, hemagglutinin (HA) of A/Puerto Rico/8/1934 (PR8, H1N1) (Influenza A virus A/Puerto Rico/8/1934 …, UniProt P03452 18-565); experiment: cell-based or functional assay
[2] = target: synthetic peptide #34 […] (Influenza A virus A/Puerto Rico/8/1934 …); experiment: peptide ELISA, peptide coated at 10 µg/ml, mAb at 1 µg/ml
[3] = target: T1, hemagglutinin (HA) of A/Puerto …; experiment: cell-based or functional assay; remark: listed apart in the source
[4] = target: synthetic peptide #39 […] (Influenza A virus A/Puerto Rico/8/1934 …); experiment: peptide ELISA, peptide coated at 10 µg/ml, mAb at 1 µg/ml

| Binder | HI Titer to PR8 [1] [reciprocal dilution] | binding result [2] | concentration for complete neutralization of PR8, plaque inhibition assay [3] [µg/mL] | in ovo neutralization, concentration for complete blocking of PR8 growth [3] [µg/mL] | binding result [4] |
| --- | --- | --- | --- | --- | --- |
| B1 | 80 | binds | 0.1 | 16 | – |
| B2 | 40 | – | 0.1 | 8 | – |
| B3 | 20 | – | 0.1 | 4 | binds |
